system: Escherichia coli TOP10; test: shrunken log2 fold change of peptide-encoding DNA abundance (4.5 h post-induction vs induction); higher = less antimicrobial activity (less host growth inhibition); conditions: time post-induction: 4.5 h; library: site-saturation at positions 5, 18, 19, 20
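Further: peptides expressed intracellularly from a pBAD plasmid library in pooled LB shake-flask culture, induced with 0.3% L-arabinose, DNA abundance read by NGS, three biological replicates, DESeq2 with apeglm shrinkage.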

Sequence | shrunken log2 fold change
RRIRKRPPRLPRPRPRPNYKPRP | -0.507
RRIRIRPPRLPRPRPRPNQFPRP | -0.0326
RRIRMRPPRLPRPRPRPQVCPRP | 0.0261
RRIRIRPPRLPRPRPRPPKFPRP | -0.294
RRIRSRPPRLPRPRPRPGYHPRP | -0.512
RRIRLRPPRLPRPRPRPQRLPRP | 0.239
RRIRWRPPRLPRPRPRPNTLPRP | -0.359
RRIRGRPPRLPRPRPRPDYGPRP | 0.0184
RRIRHRPPRLPRPRPRPDDKPRP | -0.359
RRIRRRPPRLPRPRPRPMVKPRP | 0.0693
RRIRHRPPRLPRPRPRPYQNPRP | 0.0439
RRIRERPPRLPRPRPRPVHQPRP | 0.107
RRIRFRPPRLPRPRPRPWMIPRP | -0.00776
RRIRDRPPRLPRPRPRPAWIPRP | 0.0906
RRIRDRPPRLPRPRPRPFILPRP | -0.293
RRIRSRPPRLPRPRPRPSIMPRP | -0.196
RRIRWRPPRLPRPRPRPYFCPRP | -0.298
RRIRDRPPRLPRPRPRPTETPRP | -0.000924
RRIRDRPPRLPRPRPRPHMRPRP | 0.00207
RRIRARPPRLPRPRPRPHVIPRP | 0.0726
RRIRARPPRLPRPRPRPGGYPRP | 0.116
RRIRNRPPRLPRPRPRPYRAPRP | -0.183

Sequence | shrunken log2 fold change
RRIRIRPPRLPRPRPRPRKDPRP | -0.387
RRIRERPPRLPRPRPRPHCWPRP | -0.0487
RRIRKRPPRLPRPRPRPNWDPRP | 1.4
RRIRERPPRLPRPRPRPTSKPRP | -0.426
RRIRTRPPRLPRPRPRPHIHPRP | -0.102
RRIRARPPRLPRPRPRPEPVPRP | 0.512
RRIRERPPRLPRPRPRPVYRPRP | -0.514
RRIRKRPPRLPRPRPRPLLEPRP | 0.241
RRIRDRPPRLPRPRPRPECMPRP | 1.07
RRIRQRPPRLPRPRPRPEAMPRP | 0.00408
RRIRKRPPRLPRPRPRPRVCPRP | 0.282
RRIRPRPPRLPRPRPRPYCHPRP | -0.241
RRIRDRPPRLPRPRPRPDGYPRP | -0.0204
RRIRYRPPRLPRPRPRPRYSPRP | -1.43
RRIRHRPPRLPRPRPRPECYPRP | -0.0176
RRIRMRPPRLPRPRPRPWTFPRP | 0.055
RRIRSRPPRLPRPRPRPGPSPRP | 0.456
RRIRQRPPRLPRPRPRPQCLPRP | -0.122
RRIRSRPPRLPRPRPRPASFPRP | -0.226
RRIRWRPPRLPRPRPRPQNVPRP | -0.0645
RRIRARPPRLPRPRPRPGNLPRP | -0.232
RRIRIRPPRLPRPRPRPCLQPRP | -0.0932

Sequence | shrunken log2 fold change
RRIRRRPPRLPRPRPRPPSVPRP | 0.545
RRIRQRPPRLPRPRPRPPRMPRP | 0.442
RRIRMRPPRLPRPRPRPAAVPRP | 1.44
RRIRYRPPRLPRPRPRPKLVPRP | -0.067
RRIRQRPPRLPRPRPRPIEVPRP | 0.0112
RRIRIRPPRLPRPRPRPEAMPRP | 0.124
RRIRGRPPRLPRPRPRPTYVPRP | -0.144
RRIRSRPPRLPRPRPRPETFPRP | 0.0203
RRIRERPPRLPRPRPRPWCFPRP | -0.161
RRIRHRPPRLPRPRPRPFQWPRP | -0.139
RRIRARPPRLPRPRPRPGDHPRP | 0.114
RRIRRRPPRLPRPRPRPYEYPRP | -0.206
RRIRNRPPRLPRPRPRPFCYPRP | 0.166
RRIRQRPPRLPRPRPRPNIHPRP | -0.619
RRIRTRPPRLPRPRPRPTTWPRP | -0.0444
RRIRFRPPRLPRPRPRPMRPPRP | 0.654
RRIRERPPRLPRPRPRPTPVPRP | 0.059
RRIRMRPPRLPRPRPRPTLCPRP | 0.122
RRIRHRPPRLPRPRPRPDQNPRP | -0.14
RRIRPRPPRLPRPRPRPQHWPRP | 0.265
RRIRIRPPRLPRPRPRPRSVPRP | -0.056
RRIRVRPPRLPRPRPRPKGSPRP | 0.0616

Sequence | shrunken log2 fold change
RRIRWRPPRLPRPRPRPPLKPRP | 0.415
RRIRRRPPRLPRPRPRPQNCPRP | -0.275
RRIRQRPPRLPRPRPRPENNPRP | -0.331
RRIRDRPPRLPRPRPRPLRHPRP | 0.358
RRIRERPPRLPRPRPRPAWFPRP | 0.187
RRIRPRPPRLPRPRPRPPMKPRP | 0.0802
RRIRWRPPRLPRPRPRPIHRPRP | -0.0434
RRIRRRPPRLPRPRPRPGCRPRP | 0.459
RRIRARPPRLPRPRPRPIVRPRP | -0.146
RRIRERPPRLPRPRPRPVCAPRP | 0.415
RRIRCRPPRLPRPRPRPPNVPRP | 0.213
RRIRPRPPRLPRPRPRPMTIPRP | -0.421
RRIRYRPPRLPRPRPRPMKEPRP | -0.00804
RRIRDRPPRLPRPRPRPPTRPRP | 0.596
RRIRSRPPRLPRPRPRPSHPPRP | -0.277
RRIRTRPPRLPRPRPRPFPLPRP | -0.147
RRIRERPPRLPRPRPRPKIAPRP | -0.147
RRIRIRPPRLPRPRPRPFTYPRP | -0.00992
RRIRIRPPRLPRPRPRPRQCPRP | -0.127
RRIRLRPPRLPRPRPRPDCRPRP | 0.0593
RRIRVRPPRLPRPRPRPHVPPRP | -0.044
RRIRARPPRLPRPRPRPQIGPRP | 3.24

Sequence | shrunken log2 fold change
RRIRERPPRLPRPRPRPTGPPRP | 0.353
RRIRNRPPRLPRPRPRPSENPRP | -0.296
RRIRGRPPRLPRPRPRPIQPPRP | 0.46
RRIRSRPPRLPRPRPRPCGQPRP | 0.088
RRIRIRPPRLPRPRPRPATQPRP | 0.129
RRIRGRPPRLPRPRPRPPQMPRP | 1.77
RRIRIRPPRLPRPRPRPEVNPRP | -0.294
RRIRHRPPRLPRPRPRPIYQPRP | -0.316
RRIRDRPPRLPRPRPRPSYGPRP | -0.0489
RRIRTRPPRLPRPRPRPEFRPRP | -0.0543
RRIRSRPPRLPRPRPRPYRIPRP | 0.123
RRIRKRPPRLPRPRPRPYICPRP | 0.0572
RRIRCRPPRLPRPRPRPEFMPRP | 0.118
RRIRYRPPRLPRPRPRPMMFPRP | -0.091
RRIRVRPPRLPRPRPRPKKEPRP | 0.18
RRIRMRPPRLPRPRPRPWYCPRP | -0.336
RRIRERPPRLPRPRPRPVGCPRP | 0.168
RRIRGRPPRLPRPRPRPLHLPRP | 0.0533
RRIRWRPPRLPRPRPRPRRLPRP | 0.474
RRIRVRPPRLPRPRPRPMVRPRP | 0.00709
RRIRIRPPRLPRPRPRPWYNPRP | -0.343

— the supplement of paper PMC9112550, “Optimization of the antimicrobial peptide Bac7 by deep mutational scanning” (BMC Biology, 2022)
